Results taken from the supplement of paper PMC12636428.

Test system: Saccharomyces cerevisiae
Test: transcriptional activation domain activity (GFP:mCherry ratio, weighted mean of sorted bins, harmonized to initial dataset scale) (arbitrary fluorescence ratio units); higher = stronger transcriptional activation
Details: beta-estradiol 1 µM; induction time 4 h
Summary of the method: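 The listed activation activity is a read-weighted mean of bin median fluorescence, averaged across barcodes and linearly mapped onto the initial dataset scale. Barcoded tiles, fused to an estradiol-inducible synthetic transcription factor, were integrated at URA3 in yeast diploids bearing a GFP reporter. Cells were held 4 hours at 30 °C in SC with 1 uM beta-estradiol, sorted into 8 GFP:mCherry bins, and sequenced, and tiles with fewer than 50 reads were excluded.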

Row | Sequence | transcriptional activation domain activity
1 | EEKDTKGGPATTSKAVVKGSKSAADKKKLVKGDAKGKVPENGKRDKSEEKDEK | 21800
2 | LWYIGSFVTNGLVNVVGVWKICKLWSIWVRVAFTYMFMCFILFRALALHRIFI | 59200
3 | YTNVYRCIKDEVYLLLSRLSLNWRKQDDYIWLLNLWTIWAAPWRLGNVPIISG | 53500
4 | PLIDLFGKDHLCLVKAAYHKIFGIVFESGTDLTDHVRRMLCTRSDFARTILPL | 82800
5 | EEEGDEDVSGSEGSSRRKGRQRNEEEDDRSAGRRSHRLKDKSRSSTRNRRGSD | 13600
6 | SIAISPESAVANLGTDTGLPSDVLDTVSKIGNSPNVFDDDLFSNLLWFDQNFA | 142000
7 | QAAAPAEKPATAAAGEAEKDGAAARGASTRGRGRGRGRGGRGGATAARRPRAD | 46200
8 | GEEGDKPKRGRKRKEAPKDDGEDADDAEAPAAKKAKPASKPASKAAATKPASK | 34200
9 | MIFFLPLVFTSFFFIFFYMYYTVWTLHLSFVKSLEACMNPWIWELYGSTFIHL | 60000
10 | MMGLSLGFKCCFQMLSLFSILFSFHLVLRLLSFPFFSCSYCILYRFLFFCWGW | 24500
11 | TNPAFANSSLPPIHSSFSTLSNPPSIFCVLPPFLPSFPLSFPFFFSFPFFLFL | 52500
12 | AEAQEGRKKDAAAAAEKKEEESPKKEEESAAGEEKQAAPKKKPKKLERRGGAA | 41300
13 | LWQYMEFRILVYIFFGLSFIPLSIFLLFCTCLSSFIFFVAAGIWLFVGTIAFF | 54200
14 | CHVLRMYTPYWILFPNDLIQLLKVIPALRCLHILSKGIRIIRWKPLPYLLWED | 51800
15 | MLHAGVSNKIAKGWPKEGSCDRASFVHEGVLMMCQRSLVTFIVRSLLLMCYYF | 36800
16 | TAKLLLEDSMKKKRQEIQQLEQATHQRSNLETTHLLDIDWDALLDPSDTLNFM | 90000
17 | LLHAAGVHYGYGLLLLKCDILLRLLMFISFLLSSQFLLSVISPLLFFPSFVLM | 54700
18 | VDDSDDDGDEEGGKNEESITKKGVRLLDYACGTGLVSRVSHIPSIAGASSRSL | 46600
19 | EPRQTGDSRSQSSGNTGENEEDIAFASGLNGGTFDSMLEALPDDLYFTDFVSP | 88800
20 | SRITSIGVWYLLIQMIWYILFGILYIWFFCQTWESFTVLLVVDYSLRIILCLM | 58100
21 | MMAEGERPLATMCSVLSVCYVCVRLVLSNLIWIVLCSSPRPLPMALLSLLAHR | 32900

Row | Sequence | transcriptional activation domain activity
22 | SNYCWQMSVLPRARISIFRAEVKERCVVTVALLFSVYDPIAIVDLVKKLETDF | 27500
23 | GRPAKSQAEEPVEAAPEPKKRDRQANVAPEPVIEEAPVVKKGRGRPKKDAVTV | 29600
24 | QAEDSNDNDNNNKAAAEEEEEEGGGERSGPMVNGNGGGGAEGMVNGASAVGRD | 14800
25 | GGTASPPPPPDNRPPEERYAEQLRQLNDMGFFDFDRNVEALRRSGGSVQGAIE | 28300
26 | MDGGLFCVSISLVHFLLLLFPSHPLILRLIFLLFTFHFPVRLYFNFVLLQLLT | 67900
27 | WLAHSKKKTCDVCKHPYSFTKVYATDMPTRLPPVLLLRRVAQQSFFAMLFAVR | 48100
28 | EKEESDEDESEKGSAAGGRGKAALKTWVKRVRLIRDKGTLLGKGFGYVQFNDR | 69000
29 | LVEFLFAVNDEVANVLLVFFCVFVAGYFILTSLPLLFQQCPFQTPLTSFFWYA | 38600
30 | TFLLLPIFVCPHPNLLFGLGFSLILHACLRQIFLSSLVICVFLSLLVIYMLYV | 50900
31 | MQYVANATPVTCDYDGFDGSGMLVIPNIAIYLSATSGLACIIKCFEILWWYMA | 65000
32 | ADANGGGLKAGGRVTIAIVRQAILEATSSPLQVYLKTCPLASKVFLVALLVRC | 58100
33 | LHLFGLVLVWVSYLLFWVFLLFSFVYPDWLLALFILRIILFLFSFSVILFYFI | 47100
34 | MLSGLRHLRDEHIFAAAVGFFSHIYYYRYGEHHMQAPLLFWMHISVFLMLFYW | 40100
35 | IGKVTSAGLMSKTVRVDRPVQEWHNYLRKFYKSSKHYLVHDPANSLRTGDMIS | 69800
36 | DNESDAEPQQEKSKSQSRRRQSRGRGRRGADSGAESDARSDVSQSGGRRNRQR | 44200
37 | GSWMILRILLHQLLDSVQYIPEYKDIAALRYRGPTYYFQELQKAFYHVLDAVP | 65200
38 | PVLEQKRCIRAMEEMIILCKEYIRIARPQISACLISALSFDELRATAFSCWVA | 48700
39 | MDLVLCIGLFGHIPYHLQYSLPFVSFFFSHNIVHYSEMHYFGVVNSGILWLGF | 63300
40 | FTPWLSSTFFLFFAVIRWGAYCLVPLLLPSFPSIPLSLYPIRFPSTHVLVLIV | 61000
41 | AGSSTFRDKGKGRASDAGPVSRTGDNEGGEESAGEGNQREKKRVKKEVKKAPR | 20300
42 | ANHQVYVDWWYTWCLTYFMETHRDVCIVLKKSLKWIPVAGWGMQFFKFIFLAR | 39400
